From doi:10.1101/2024.07.29.605612 (bioRxiv, 2024)

Target: ribosomal protein uS14 (Escherichia coli (endogenous in K-12 …, UniProt P0AG59 1-101))
Test: cryo-EM structure

binding result: binds
B1: catalytically inactive mutant of RNase I (H55F/H133F) (enzyme)
chain: LALQAKQYGDFDRYVLALSWQTGFCQSQHDRNRNERDECRLQTETTNKADFLTVFGLWPGLPKSVAARGVDERRWMRFGCATRPIPNLPEARASRMCSSPETGLSLETAAKLSEVMPGAGGRSCLERYEYAKFGACFGFDPDAYFGTMVRLNQEIKESEAGKFLADNYGKTVSRRDFDAAFAKSWGKENVKAVKLTCQGNPAYLTEIQISIKADAINAPLSANSFLPQPHPGNCGKTFVIDKAGY
